Assay results published in patent US20260274955A1 (JANUX THERAPEUTICS, published 2026).

B1: Phage-1189 (peptide)
peptide: TCAAGANWPWPECL
B2: Phage-1190 (peptide)
peptide: LCEEFFHYSWPLCL
B3: Phage-1191 (peptide)
peptide: PCSDGVAYPWPYCV
B4: Phage-1192 (peptide)
peptide: SCAAGAHWSWPVCF
B5: Phage-1193 (peptide)
peptide: LCSAGAMYPWPVCL
B6: Phage-1194 (peptide)
peptide: SCSAGATWAWPQCF
B7: Phage-1195 (peptide)
peptide: SCSAVFSYRWPKCL
B8: Phage-1196 (peptide)
peptide: SCSAGAGWAWPMCF
B9: Phage-1197 (peptide)
peptide: SCAAGFDYGWPMCL
B10: Phage-1198 (peptide)
peptide: SCADGFNYVWPLCF
B11: Phage-1199 (peptide)
peptide: TCAAGANYSWPACL
B12: Phage-984 (peptide)
peptide: LCKPGVPNSWPTCL
B13: Phage-985 (peptide)
peptide: TCSAGAHYPWPDCI
B14: Phage-987 (peptide)
peptide: LCNAGAMYKWPTCL
B15: Phage-1050 (peptide)
peptide: LCNAGAPYKWPTCL
B16: Phage-988 (peptide)
peptide: MCSAGAMYPWPLCL
B17: Phage-989 (peptide)
peptide: TCSAGAMWTWPYCF
B18: Phage-990 (peptide)
peptide: TCAAGAYWTWPACF
B19: Phage-991 (peptide)
peptide: TCSAGAGYPWPLCY
B20: Phage-992 (peptide)
peptide: SCSAGASLQLSICL
B21: Phage-993 (peptide)
peptide: TCSAGATWAWPSCF
B22: Phage-994 (peptide)
peptide: TCSAGAHYVWPMCF
B23: Phage-995 (peptide)
peptide: TCSAGATYIWPMCF
B24: Phage-996 (peptide)
peptide: TCRAGATYNWPFCL
B25: Phage-997 (peptide)
peptide: TCSAGATWPWPICL
B26: Phage-998 (peptide)
peptide: TCAAGASYPWPACL
B27: Phage-999 (peptide)
peptide: SCAAVFSFPWSPCL
B28: Phage-1000 (peptide)
peptide: TCSAGFSYSWPACF
B29: Phage-1001 (peptide)
peptide: TCTAGFSYNWPMCF
B30: Phage-1002 (peptide)
peptide: TCSAGATYAWPACY
B31: Phage-1003 (peptide)
peptide: TCSAGATYSWPQCL
B32: Phage-1004 (peptide)
peptide: TCSAGAYYAWPVCL
B33: Phage-1005 (peptide)
peptide: LCRAGAMWPWPTCL
B34: Phage-1006 (peptide)
peptide: TCSAGATFHWPQCF
B35: Phage-1007 (peptide)
peptide: TCSAGAHYEWPYCL
B36: Phage-1008 (peptide)
peptide: QCAAGASYPWPVCL
B37: Phage-1009 (peptide)
peptide: LCKPGVPYQWPTCF
B38: Phage-1010 (peptide)
peptide: TCAAGAMWQWPVCL
B39: Phage-1011 (peptide)
peptide: PCSAGATYAWLYCV
B40: Phage-1013 (peptide)
peptide: SCAAGAAYPWPACL
B41: Phage-1043 (peptide)
peptide: RCAAGVMYDWPVCL
B42: Phage-1044 (peptide)
peptide: TCSAGAHWTWPLCF
B43: Phage-1045 (peptide)
peptide: TCSAGAHFAWPMCF
B44: Phage-1046 (peptide)
peptide: SCAAGAHYVWPFCF
B45: Phage-1047 (peptide)
peptide: TCSAGATYNWPWCF
B46: Phage-1048 (peptide)
peptide: TCSAGASYPWPVCL
B47: Phage-1049 (peptide)
peptide: WCAAGAMYPWPLCL
B48: Phage-1051 (peptide)
peptide: LCSAGAMYPWPLCY
B49: Phage-1052 (peptide)
peptide: TCAAGAMWVWPTCL
B50: Phage-1053 (peptide)
peptide: LCAAGANYPWPACL
B51: Phage-1054 (peptide)
peptide: SCAAGATYTWPMCI

target: anti-CD28 Fab (SEQ ID NOs: 202, 203); experiment: phage ELISA, Fab on plate;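 note: ELISA of crude clonal phage supernatants on the plate, wells preloaded with CD28 antigen or only blocking buffer, captured phage read out via HRP-linked anti-M13 antibody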
Sequence (VH, as listed by the source, chain 1 of 2): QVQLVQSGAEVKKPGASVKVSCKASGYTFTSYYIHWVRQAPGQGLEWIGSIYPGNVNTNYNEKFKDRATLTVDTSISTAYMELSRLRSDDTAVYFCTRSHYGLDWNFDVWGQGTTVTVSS
Sequence (VL, as listed by the source, chain 2 of 2): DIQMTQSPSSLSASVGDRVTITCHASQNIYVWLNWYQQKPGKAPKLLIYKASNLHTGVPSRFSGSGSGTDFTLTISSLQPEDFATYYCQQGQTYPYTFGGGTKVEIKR
Protocol: (§1) After panning, phage infected bacteria were plated out and colonies picked into 96 well blocks. Clonal phage was then amplified and separated from bacterial cells via centrifugation.
(§2) Clonal phage were harvested as crude supernatants and screened via standard ELISAs. […] Prior to the addition of clonal phage, wells were incubated with blocking buffer and CD28 antigen or blocking buffer alone. Without washing or aspirating, clonal phage supernatants were then added to the wells and incubated for a short time. Wells were then washed followed by detection of bound phage using a horse radish conjugated anti-M13 antibody. Clonal phage of interest were then sent for sequence analysis.

Row | Binder | Anti-CD28 Fab signal
1 | B1 | 1.21
2 | B2 | 1.21
3 | B3 | 1.2
4 | B4 | 1.2
5 | B5 | 1.19
6 | B6 | 1.19
7 | B7 | 1.18
8 | B8 | 1.16
9 | B9 | 1.16
10 | B10 | 1.14
11 | B11 | 1.14

target: T1, Anti-CD28 Fab (SEQ ID NOs: 202, 203); experiment: phage binding ELISA, Fab on plate;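 note: clonal phage supernatant ELISA, wells preincubated with CD28 antigen or blocking buffer only, then bound phage detected using HRP-linked anti-M13 antibody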
T1 construct: biotinylated and captured on neutravidin coated plates in the phage ELISA
T1 sequence (VH, as listed by the source, chain 1 of 2): as the sequence (VH, as listed by the source, chain 1 of 2) above
T1 sequence (VL, as listed by the source, chain 2 of 2): as the sequence (VL, as listed by the source, chain 2 of 2) above

Row | Binder | Anti-CD28 Fab (SEQ ID NOs: 202, 203) signal
12 | B12 | 1.95
13 | B13 | 1.95
14 | B14 | 1.94
15 | B15 | 1.66
16 | B16 | 1.93
17 | B17 | 1.93
18 | B18 | 1.93
19 | B19 | 1.92
20 | B20 | 1.92
21 | B21 | 1.92
22 | B22 | 1.91
23 | B23 | 1.9
24 | B24 | 1.9
25 | B25 | 1.89
26 | B26 | 1.89
27 | B27 | 1.87
28 | B28 | 1.86
29 | B29 | 1.85
30 | B30 | 1.84
31 | B31 | 1.84

Row | Binder | Anti-CD28 Fab (SEQ ID NOs: 202, 203) signal
32 | B32 | 1.84
33 | B33 | 1.83
34 | B34 | 1.83
35 | B35 | 1.82
36 | B36 | 1.82
37 | B37 | 1.82
38 | B38 | 1.81
39 | B39 | 1.81
40 | B40 | 1.8
41 | B41 | 1.7
42 | B42 | 1.69
43 | B43 | 1.69
44 | B44 | 1.68
45 | B45 | 1.68
46 | B46 | 1.67
47 | B47 | 1.67
48 | B48 | 1.66
49 | B49 | 1.66
50 | B50 | 1.66
51 | B51 | 1.66

target: anti-CD28 Fab (SEQ ID NOs: 202, 203); experiment: phage ELISA, Fab on plate, CD28 antigen as competitor;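 note: wells pre-incubated with CD28 antigen in blocking buffer (reference: blocking buffer only) before adding crude clonal phage supernatant, bound phage read with HRP-coupled anti-M13 antibody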
Protocol: as §1, §2

Row | Binder | Anti-CD28 Fab signal in the presence of CD28
52 | B1 | 0.08
53 | B2 | 0.06
54 | B3 | 0.06
55 | B4 | 0.08
56 | B5 | 0.08
57 | B6 | 0.08
58 | B7 | 0.06
59 | B8 | 0.08
60 | B9 | 0.06
61 | B10 | 0.08
62 | B11 | 0.08

target: T1, Anti-CD28 Fab (SEQ ID NOs: 202, 203); experiment: phage binding ELISA, Fab on plate, CD28 as competitor
Protocol: as §1, §2

Row | Binder | Anti-CD28 Fab signal in the presence of CD28
63 | B12 | 0.06
64 | B13 | 0.07
65 | B14 | 0.06
66 | B15 | 0.07
67 | B16 | 0.07
68 | B17 | 0.08
69 | B18 | 0.09
70 | B19 | 0.08
71 | B20 | 0.06
72 | B21 | 0.1
73 | B22 | 0.17
74 | B23 | 0.08
75 | B24 | 0.07
76 | B25 | 0.08
77 | B26 | 0.09
78 | B27 | 0.08
79 | B28 | 0.07
80 | B29 | 0.06
81 | B30 | 0.14
82 | B31 | 0.07

Row | Binder | Anti-CD28 Fab signal in the presence of CD28
83 | B32 | 0.08
84 | B33 | 0.06
85 | B34 | 0.08
86 | B35 | 0.11
87 | B36 | 0.07
88 | B37 | 0.05
89 | B38 | 0.06
90 | B39 | 0.06
91 | B40 | 0.06
92 | B41 | 0.07
93 | B42 | 0.06
94 | B43 | 0.07
95 | B44 | 0.08
96 | B45 | 0.05
97 | B46 | 0.07
98 | B47 | 0.06
99 | B48 | 0.08
100 | B49 | 0.07
101 | B50 | 0.07
102 | B51 | 0.07
